According to patent US8598314B2 (priority 2007, dated 2013):

Legend:
[1] = Peptide stability in human kidney brush border membranes; conditions: Table 6
Procedure: The tubes were incubated in VorTemp 56™ (Eurotech Labs, UK) at 37° C. vortexed at 500 RPM. At time points of 0, 1, 2, 3, 4, and 5 hours, 200 μl STOP solution (50% ACN, 1% formic acid) was added to a given tube, and the samples were allowed to incubate until the end of the experiment. The samples were collected after 5 hours, centrifuged, and 200 μl of the supernatants were transferred into mass spectrometry vials. The intensities of the mother ions in each vial were analyzed with API 150EX™ mass spectrometer (Applied Biosystems, Foster City, Calif.) and quantified using the ANALYST™ program.
The hKBBM assay was also performed in the presence of valinepyrrolidide, a DPP-IV inhibitor.

NIH/Swiss female mice = test: Transient effect on blood glucose and body weight; assay type: in vivo; conditions: 250 nmol/kg subcutaneous injection; for effect on body weight (in words): FIGS. 14B and 15B; for return of body weight to pre-treatment levels (in words): day 5, FIG. 15B
Procedure: A subcutaneous injection (200 μL) of vehicle (PBS) or test compound was given to NIH/Swiss female mice immediately following baseline glucose and body weight measurement. Tail blood glucose samples were measured (OneTouch® Ultra®, LifeScan Inc., Milpitas, Calif.) at baseline (time=0) and 2, 4, 8, 24, 48, 72 and 96 hrs. Body weight was measured daily. Significant test sample effects were identified by ANONA (p<0.05) followed by Dunnett's post test (GraphPad PRISM®, version 4.00 for Windows, GraphPad Software, San Diego, Calif.). Points in FIG. 14A, FIG. 14B, FIG. 15A and FIG. 15B represent mean±SD (standard deviation).

SMILES	Stability in hKBBM [1] [%]	effect on body weight (in words) (NIH/Swiss female mice)	return of body weight to pre-treatment levels (in words) (NIH/Swiss female mice)
CC[C@H](C)[C@H](NC(=O)[C@H](Cc1ccccc1)NC(=O)[C@H](CC(C)C)NC(=O)[C@H](CCCNC(=N)N)NC(=O)[C@@H](NC(=O)[C@H](C)NC(=O)[C@H](CCC(=O)O)NC(=O)[C@H](CCC(=O)O)NC(=O)[C@H](CCC(=O)O)NC(=O)[C@H](CC(C)C)NC(=O)[C@H](CCC(N)=O)NC(=O)[C@H](CCCCN)NC(=O)[C@H](CO)NC(=O)[C@H](CC(C)C)NC(=O)[C@H](CC(=O)O)NC(=O)[C@H](CO)NC(=O)[C@@H](NC(=O)[C@H](Cc1ccccc1)NC(=O)[C@@H](NC(=O)CNC(=O)[C@H](CCC(=O)O)NC(=O)CNC(=O)[C@@H](N)Cc1c[nH]cn1)[C@@H](C)O)[C@@H](C)O)C(C)C)C(=O)N[C@@H](CCC(=O)O)C(=O)N[C@@H](Cc1c[nH]c2ccccc12)C(=O)N[C@@H](CC(C)C)C(=O)N[C@@H](CCCCN)C(=O)N[C@@H](CCC(N)=O)C(=O)NCC(=O)NCC(=O)N1CCC[C@H]1C(=O)N[C@@H](CO)C(=O)N[C@@H](CCCCN)C(=O)N[C@@H](CCC(=O)O)C(=O)N[C@H](C(=O)N[C@H](C(=O)N[C@@H](CO)C(=O)NCCCC(=O)NCCOCCOCC(=O)NCCCC(=O)NCCCCC(N)C(=O)N1CCSC1)[C@@H](C)CC)[C@@H](C)CC (some centres unmarked) [Compound 5932]	63	decrease in body weight, measurable at day 2	body weight does not return to pre-treatment levels by day 5
CC[C@H](C)[C@H](NC(=O)[C@H](Cc1ccccc1)NC(=O)[C@H](CC(C)C)NC(=O)[C@H](CCCNC(=N)N)NC(=O)[C@@H](NC(=O)[C@H](C)NC(=O)[C@H](CCC(=O)O)NC(=O)[C@H](CCC(=O)O)NC(=O)[C@H](CCC(=O)O)NC(=O)[C@H](CC(C)C)NC(=O)[C@H](CCC(N)=O)NC(=O)[C@H](CCCCN)NC(=O)[C@H](CO)NC(=O)[C@H](CC(C)C)NC(=O)[C@H](CC(=O)O)NC(=O)[C@H](CO)NC(=O)[C@@H](NC(=O)[C@H](Cc1ccccc1)NC(=O)[C@@H](NC(=O)CNC(=O)[C@H](CCC(=O)O)NC(=O)CNC(=O)[C@@H](N)Cc1c[nH]cn1)[C@@H](C)O)[C@@H](C)O)C(C)C)C(=O)N[C@@H](CCC(=O)O)C(=O)N[C@@H](Cc1c[nH]c2ccccc12)C(=O)N[C@@H](CC(C)C)C(=O)N[C@@H](CCCCN)C(=O)N[C@@H](CCC(N)=O)C(=O)NCC(=O)NCC(=O)N1CCC[C@H]1C(=O)N[C@@H](CO)C(=O)N[C@@H](CCCCN)C(=O)N[C@@H](CCC(=O)O)C(=O)N[C@H](C(=O)N[C@H](C(=O)N[C@@H](CO)C(=O)NCCOCCOCC(=O)NCCCC[C@H](N)C(=O)N1CCC[C@H]1C#N)[C@@H](C)CC)[C@@H](C)CC [Compound 5954, [^14Leu,^28Gln]Exendin-4-(1-32)-fGLP-1-(33-37)-miniPEG-(S)-2,6-diamino-1-(pyrrolidin-2-cyano-1-yl)hexan-1-amide]	57	–	–
CC[C@H](C)[C@H](NC(=O)[C@H](Cc1ccccc1)NC(=O)[C@H](CC(C)C)NC(=O)[C@H](CCCNC(=N)N)NC(=O)[C@@H](NC(=O)[C@H](C)NC(=O)[C@H](CCC(=O)O)NC(=O)[C@H](CCC(=O)O)NC(=O)[C@H](CCC(=O)O)NC(=O)[C@H](CC(C)C)NC(=O)[C@H](CCC(N)=O)NC(=O)[C@H](CCCCN)NC(=O)[C@H](CO)NC(=O)[C@H](CC(C)C)NC(=O)[C@H](CC(=O)O)NC(=O)[C@H](CO)NC(=O)[C@@H](NC(=O)[C@H](Cc1ccccc1)NC(=O)[C@@H](NC(=O)CNC(=O)[C@H](CCC(=O)O)NC(=O)CNC(=O)[C@@H](N)Cc1c[nH]cn1)[C@@H](C)O)[C@@H](C)O)C(C)C)C(=O)N[C@@H](CCC(=O)O)C(=O)N[C@@H](Cc1c[nH]c2ccccc12)C(=O)N[C@@H](CC(C)C)C(=O)N[C@@H](CCCCN)C(=O)N[C@@H](CCC(N)=O)C(=O)NCC(=O)NCC(=O)N1CCC[C@H]1C(=O)N[C@@H](CO)C(=O)N[C@@H](CCCCN)C(=O)N[C@@H](CCC(=O)O)C(=O)N[C@H](C(=O)N[C@H](C(=O)N[C@@H](CO)C(=O)NCCCC(=O)NCCOCCOCC(=O)NCCCC(=O)NCCCCC(N)C(=O)N1CCC[C@H]1C#N)[C@@H](C)CC)[C@@H](C)CC (some centres unmarked) [Compound 5933]	87	decrease in body weight, measurable at day 2 which continues at least through day 5	–
CC[C@H](C)[C@H](NC(=O)[C@H](Cc1ccccc1)NC(=O)[C@H](CC(C)C)NC(=O)[C@H](CCCNC(=N)N)NC(=O)[C@@H](NC(=O)[C@H](C)NC(=O)[C@H](CCC(=O)O)NC(=O)[C@H](CCC(=O)O)NC(=O)[C@H](CCC(=O)O)NC(=O)[C@H](CC(C)C)NC(=O)[C@H](CCC(N)=O)NC(=O)[C@H](CCCCN)NC(=O)[C@H](CO)NC(=O)[C@H](CC(C)C)NC(=O)[C@H](CC(=O)O)NC(=O)[C@H](CO)NC(=O)[C@@H](NC(=O)[C@H](Cc1ccccc1)NC(=O)[C@@H](NC(=O)CNC(=O)[C@H](CCC(=O)O)NC(=O)CNC(=O)[C@@H](N)Cc1c[nH]cn1)[C@@H](C)O)[C@@H](C)O)C(C)C)C(=O)N[C@@H](CCC(=O)O)C(=O)N[C@@H](Cc1c[nH]c2ccccc12)C(=O)N[C@@H](CC(C)C)C(=O)N[C@@H](CCCCN)C(=O)N[C@@H](CCC(N)=O)C(=O)NCC(=O)NCC(=O)N1CCC[C@H]1C(=O)N[C@@H](CO)C(=O)N[C@@H](CCCCN)C(=O)N[C@@H](CCC(=O)O)C(=O)N[C@H](C(=O)N[C@H](C(=O)N[C@@H](CO)C(=O)NCCOCCOCC(=O)NCCCCC(N)C(=O)N1CCSC1)[C@@H](C)CC)[C@@H](C)CC (some centres unmarked) [Compound 5953]	76	–	–
CC[C@H](C)[C@H](NC(=O)[C@H](Cc1ccccc1)NC(=O)[C@H](CC(C)C)NC(=O)[C@H](CCCNC(=N)N)NC(=O)[C@@H](NC(=O)[C@H](C)NC(=O)[C@H](CCC(=O)O)NC(=O)[C@H](CCC(=O)O)NC(=O)[C@H](CCC(=O)O)NC(=O)[C@H](CC(C)C)NC(=O)[C@H](CCC(N)=O)NC(=O)[C@H](CCCCN)NC(=O)[C@H](CO)NC(=O)[C@H](CC(C)C)NC(=O)[C@H](CC(=O)O)NC(=O)[C@H](CO)NC(=O)[C@@H](NC(=O)[C@H](Cc1ccccc1)NC(=O)[C@@H](NC(=O)CNC(=O)[C@H](CCC(=O)O)NC(=O)CNC(=O)[C@@H](N)Cc1c[nH]cn1)[C@@H](C)O)[C@@H](C)O)C(C)C)C(=O)N[C@@H](CCC(=O)O)C(=O)N[C@@H](Cc1c[nH]c2ccccc12)C(=O)N[C@@H](CC(C)C)C(=O)N[C@@H](CCCCN)C(=O)N[C@@H](CCC(N)=O)C(=O)NCC(=O)NCC(=O)N1CCC[C@H]1C(=O)N[C@@H](CO)C(=O)N[C@@H](CCCCN)C(=O)N[C@@H](CCC(=O)O)C(=O)N[C@H](C(=O)N[C@H](C(=O)N[C@@H](CO)C(=O)NCCCC(=O)NCCOCCOCC(=O)NCCCC(=O)NCCCCC(N)C(=O)N1CCS(=O)(=O)C1)[C@@H](C)CC)[C@@H](C)CC (some centres unmarked) [Compound 5955]	36	decrease in body weight, measurable at day 2	body weight returns to pre-treatment levels by day 5
CC[C@H](C)[C@H](NC(=O)[C@H](Cc1ccccc1)NC(=O)[C@H](CC(C)C)NC(=O)[C@H](CCCNC(=N)N)NC(=O)[C@@H](NC(=O)[C@H](C)NC(=O)[C@H](CCC(=O)O)NC(=O)[C@H](CCC(=O)O)NC(=O)[C@H](CCC(=O)O)NC(=O)[C@H](CC(C)C)NC(=O)[C@H](CCC(N)=O)NC(=O)[C@H](CCCCN)NC(=O)[C@H](CO)NC(=O)[C@H](CC(C)C)NC(=O)[C@H](CC(=O)O)NC(=O)[C@H](CO)NC(=O)[C@@H](NC(=O)[C@H](Cc1ccccc1)NC(=O)[C@@H](NC(=O)CNC(=O)[C@H](CCC(=O)O)NC(=O)CNC(=O)[C@@H](N)Cc1c[nH]cn1)[C@@H](C)O)[C@@H](C)O)C(C)C)C(=O)N[C@@H](CCC(=O)O)C(=O)N[C@@H](Cc1c[nH]c2ccccc12)C(=O)N[C@@H](CC(C)C)C(=O)N[C@@H](CCCCN)C(=O)N[C@@H](CCC(N)=O)C(=O)NCC(=O)NCC(=O)N1CCC[C@H]1C(=O)N[C@@H](CO)C(=O)N[C@@H](CCCCN)C(=O)N[C@@H](CCC(=O)O)C(=O)N[C@H](C(=O)N[C@H](C(=O)N[C@@H](CO)C(=O)NCCOCCOCC(=O)NCCCC[C@H](N)C(=O)N1CC[S+]([O-])C1)[C@@H](C)CC)[C@@H](C)CC (some centres unmarked) [Compound 5934]	97	–	–
